Changes are numbered by the printed parent chain.

What all share (assay): SPR
For assay [1], the target named is T1, gp120IIIB (subgroup B) (HIV-1, UniProt P04578 33-511).
T1 construct: it is not tied to this reagent; also called IIIB gp120 (B)

The target of another assay is T2, CA018 gp140/420 (A/G) (HIV-1).
T2 construct: also called gp120 of CA18

Assay [2] concerns the target T3, gp140CN54 (subtype B'/C), gp140 envelope glycoprotein from the HIV-1 group M CRF07-B/C-clade isolate 97CN54 (HIV-1).
T3 construct: also called CN54 gp140/420 (C); CN54 gp140 Env

Assay [3] concerns the target T4, gp140UG37 (subtype A), gp140 envelope glycoprotein from the HIV-1 group M A-clade isolate 92UG037 (HIV-1).
T4 construct: also called UG037 gp140/420 (A); gp140-UG037

Assay [4] deals with gp120IIIB (subgroup B) (HIV-1, UniProt P04578 33-511).

B1: L92E7 (VHH)
VHH: EVQLVESGGGLVQPGGSLRLSCAASGNIVSIDAAGWFRQAPGKQREPVATILTGGATNYADSVKGRFTISRDNAKNTVYLQMSSLKPEDTAVYYCYAPMIYYGGRYSDYWGQGTQVTVSS
notes: Purified by IMAC; tags not written into the chain
Usually Kd stands for the equilibrium constant for the complex coming apart. What is called koff is a measure of how fast the partners let go of each other. A higher koff goes with fast dissociation. By kon is commonly meant the second-order rate constant of association. Turning to B1, the Kd with gp120IIIB (subgroup B) [1] was 4.42 nM; with CA018 gp140/420 (A/G) it was 7 nM; in assay [2], 4.46 nM; in assay [3], 11.2 nM. Also, the dissociation rate constant (koff) with gp120IIIB (subgroup B) [1] came to 0.00077 s⁻¹; in the assay with CA018 gp140/420 (A/G), 0.00013 s⁻¹; in assay [2], 0.00015 s⁻¹; in assay [3], 0.00025 s⁻¹. The on-rate (kon) in the assay with gp120IIIB (subgroup B) [1] is 174000 M⁻¹ s⁻¹; with CA018 gp140/420 (A/G), 18000 M⁻¹ s⁻¹; in assay [2], 33200 M⁻¹ s⁻¹; in assay [3], 22200 M⁻¹ s⁻¹.

B2: L82B4F (VHH)
VHH: EVQLVESGGGLVQAGGSLRLSCAASGFTSDDYAIGWFRRAPGKEREGVSYISIEDGSTYSADSVKGRFTISSDYAKNTVYLQMNGLKPEDTAVYYCAAAILGDSVRWLQEYDYDYWGQGTQVTVSS
notes: Family member of L81H9; tags not written into the chain
B2: in the assay with gp120IIIB (subgroup B) [1], the Kd was 0.0315 nM, the koff came to 0.000734 s⁻¹ and the kon amounted to 2.3e+07 M⁻¹ s⁻¹. In the assay with CA018 gp140/420 (A/G), this molecule registered a Kd of 3500 nM, a koff of 0.00298 s⁻¹ and a kon of 850 M⁻¹ s⁻¹. In assay [3], binding was characterised by a dissociation constant (Kd) of 0.0031 nM, the off-rate constant (koff) was determined as 3.25e-08 s⁻¹ and the association rate constant (kon) worked out at 10500 M⁻¹ s⁻¹.

B3: L91F10 (VHH)
VHH: EVQLVESGGGLVQPGGSLTLSCVASGFTLDGYAIGWFRQAPGKEVESVSCITGRHGTIYYADSVMGRFTISRDNAKSTVYLQMNSLKPEDTAVYYCAADGFDTPCVAGTDWQYDYWGQGTQVTVSS
notes: as for B1
As for B3, the results for the Kd (with CA018 gp140/420 (A/G); in assay [2]; in assay [3]) were 1.18 nM, 0.0771 nM and 3.98 nM, respectively. Also, the koff was found to be 6.94e-05 s⁻¹ in the assay with CA018 gp140/420 (A/G), 7.12e-07 s⁻¹ in assay [2] and 0.00012 s⁻¹ in assay [3]. For the same molecule, the association rate constant (kon) was 58800 M⁻¹ s⁻¹ with CA018 gp140/420 (A/G), 9230 M⁻¹ s⁻¹ in assay [2] and 29300 M⁻¹ s⁻¹ in assay [3].

B4: L91B5 (VHH)
VHH: EVQLVESGGGLVQPGGSLRLSCAASGATFDDYAIGWFRQAPGKEREGVSYIGCNDGATYYAGSVKGRFTISCDYAKNTVYLQMNSLKPEDTAVYYCAAAAQWATIRWIHEYDYNIWGQGTQVTVSS
notes: Purified by IMAC
In the case of B4, the Kd amounted to 15.6 nM in the assay with CA018 gp140/420 (A/G), 0.00127 nM in assay [2] and 0.174 nM in assay [3].

B5: L91H9 (VHH)
VHH: B4 VHH with P14A, A24V, A57S, N114D, I115T
notes: as for B1
For the molecule B5, the Kd was 4.11 nM with gp120IIIB (subgroup B) [1], 321 nM with CA018 gp140/420 (A/G), 0.0625 nM in assay [2] and 0.0102 nM in assay [3]. Also, the koff in the assay with gp120IIIB (subgroup B) [1] was 0.000711 s⁻¹; with CA018 gp140/420 (A/G), 0.428 s⁻¹; in assay [2], 1.1e-06 s⁻¹; in assay [3], 9.81e-08 s⁻¹. Further, the association rate constant (kon) with gp120IIIB (subgroup B) [1] is 173000 M⁻¹ s⁻¹; in the assay with CA018 gp140/420 (A/G), 1.33e+06 M⁻¹ s⁻¹; in assay [2] it was 17600 M⁻¹ s⁻¹; in assay [3] it was 9610 M⁻¹ s⁻¹.

B6: L91C2 (VHH)
VHH: EVQLVESGGGLVQPGGSLRLSCAASGFTLDGYAIGWFRQAPGKEREAISCITTAGTIYYADSVKGRVTISRDNAKNTVYLQMNSLKPEDTAVYLCAADGFDTPCVAGTDWGYDYEGQGTQVTVSS
notes: as for B1
Turning to B6, in the assay with gp120IIIB (subgroup B) [1], the Kd was 2.01 nM, the off-rate constant (koff) stood at 0.00025 s⁻¹ and the kon is 122000 M⁻¹ s⁻¹.

B7: mAb 2G12 (antibody, V domains shown)
VH: EVQLVESGGGLVKAGGSLILSCGVSNFRISAHTMNWVRRVPGGGLEWVASISTSSTYRDYADAVKGRFTVSRDDLEDFVYLQMHKMRVEDTAIYYCARKGSDRLSDNDPFDAWGPGTVVTVSP
VL: DVVMTQSPSTLSASVGDTITITCRASQSIETWLAWYQQKPGKAPKLLIYKASTLKTGVPSRFSGSGSGTEFTLTISGLQFDDFATYHCQHYAGYSATFGQGTRVEIKR
In the case of B7, in the assay with gp120IIIB (subgroup B) [4], binding was put at a Kd of 1.91 nM, the off-rate constant (koff) is 0.000314 s⁻¹ and the kon was 165000 M⁻¹ s⁻¹.

B8: L8Cj3 (VHH)
VHH: EVQLVESGGGLVQAGGFLRLSCELRGSIFNQYAMAWFRQAPGKEREFVAGMGAVPHYGEFVKGRFTISRDNAKSTVYLQMSSLKPEDTAIYFCARSKSTYISYNSNGYDYWGRGTQVTVSS
notes: 207 chosen because J3r is said to carry S82aN against L8Cj3; also called L8CjJ3; L9Cj3
For the molecule B8, in the assay with CA018 gp140/420 (A/G), the Kd worked out at 8.86 nM, the koff amounted to 3.98e-05 s⁻¹ and the on-rate constant (kon) turned out to be 4490 M⁻¹ s⁻¹. In addition, in assay [3], the affinity, expressed as Kd, was 0.00702 nM; the off-rate constant (koff) worked out at 5.48e-08 s⁻¹; the kon amounted to 7800 M⁻¹ s⁻¹.

The values are drawn from patent US20150158934A1 (UCL BUSINESS, published 2015).
